Assay results reported in the DeepSol protein solubility set.

Assay: soluble on expression in E. coli; label from the status in PepcDB or PDB records
With “MRQRTIVCPLIQNDGCYLLCKMADNRGVFPGQWALSGGGVEPGERIEEALRREIREELGEQLILSDITPWTFRDDIRIKTYADGRQEEIYMIYLIFDCVSANRDICINDEFQDYAWVKPEELALYDLNVATRHTLALKGLL” the “soluble on expression in E. coli” value was “not soluble”. In the case of “MSLSITVLADIHLDERYIETGSQEVFCRENQDRPEAKYSLPGCDSSESLVDAALASLQKEGPYNVMVVLGDIGPHSSESPEMTQRAIKAIADKLRRLFINKPPEQEMIILPVIGNNDVFPTYAVPTEDGDPQLLFVADQFKDLMTTEGYRQFQRRGYYSVPLSKHRVTFLVINANYYSVRHRELGEDPADQFKWVENQMIEAKAKGYRVILISHIPFGVNVYDESEALHSQYTDRIRSILRRYASTVLACLYGHYHSAYPLVLSAGEEPLVPMFICPSIAPSNYNNPGYYVFHISPLHEVDYDHYALNIEAANMQHREMHNSTELASFDCLYRFSQRYRPWLGLRALPTAQNIAHLYEHMLNDDFVWYQVRAATTSMLSERRLDFLQMAVDKAFMDAYNLSNEGHHHHHH”, the “soluble on expression in E. coli” value is reported as “soluble”. For “PDIHHPSDFSIQKLSKDEDNYVAWKIRFRSFLRVTKKFGFIDGTLPKPDPFSPLYQPWEQCNAMVMYWLMNSMTDKLLESVMYAETAHKMWEDLRRVFVPCVDLKIYQLRRRLATLRQGGDSVEEYFGKLSKVWMELSEYAPIPECKCGGCNCECTKRAEEAREKEQRYEFLMGLKLNQGFEAVTTKIMFQKPPPSLHEAFAMVKDAESMMKWYSR”, the “soluble on expression in E. coli” value was “not soluble”. For “MGSDKIHHHHHHMGDLPGLVRLSIALRIQPNDGPVFYKVDGQRFGQNRTIKLLTGSSYKVEVKIKPSTLQVENISIGGVLVPLELKSKEPDGDRVVYTGTYDTEGVTPTKSGERQPIQITMPFTDIGTFETVWQVKFYNYHKRDHCQWGSPFSVIEYECKPNETRSLMWVNKESFL”, the “soluble on expression in E. coli” value was “not soluble”. In the case of “MSLVLVKAMARIVMKFGGTSVANLERIHNVARHVKREVDAGHEVAVVVSAMSGKTNELVDWVQNAAKVAGTNAASFYDAREYDAVVASGEQVTSGLLAITLQSMGINARSWQGWQIPIRTDNAHGAARILEIDGSDIVHRMGEGQVAVVAGFQGIGPDNRIATLGRGGSDTSAVAIAAAVKADRCDIYTDVDGVYTTDPRIEPKARRMKKIAFEEMLEMASLGAKVLQVRSVELAMVHKVRTFVRSSFEDPDAPGMGDLINPPGTLICDEDEIVEQEVVTGIAYAKDEAQISLRRVADRPGVSAAIFGPLAEAHINVDMIVQNISEDGSRTDMTFTVPSGDVAKALRVLDENKGQIGFDVAQNETGLAKVSVIGIGMRSHAGVAASAFKALAEKNINIKAITTSEIKISILIDGAYAELAVRTLHSAYGLDKAEGHHHHHH”, the “soluble on expression in E. coli” value is reported as “not soluble”. In the case of “MSAEPHIVIIGGGFSGAAVAIELLRLAPNGVRVTLLEPRQSPGAGVAYSTAEPTHRINVPAARMQLAGDEEGAFDHWYRHQPAFAVDVQALRPDGSVYPQRGQFGRYVAQRFADAAASSGGRLRHLRDRALAFHQGTVTTDGGLQFKADLLVLAISHPPPSLPPQAEAWRHHPALIANPWQPGALDAIAPHARVAVMGTGLTMADTVVTLDRLGH”, the “soluble on expression in E. coli” value is reported as “not soluble”. For “SEEFLQRAKSKLNRSKRLEKVHVVIGPKSCDLDSLISTFTYAYFLDKVSPPGVLCLPVLNIPRTEFNYFTETRFILEELNISESFHIFRDEINLHQLNDEGKLSITLVGSSVLASEDKTLESAVVKVINPVEQSDANVEFRESSSSLVLKEILQEAPELITEQLAHRLRGSILFKWMTMESEKISEKQEEILSILEEKFPNLPPREDIINVLQETQFSAQGLSIEQTMLKDLKELSDGEIKVAISTVSMNLEVRVGMLF”, the “soluble on expression in E. coli” value was “soluble”. In the case of GGSGRPEIWIAQELRRIGDEFNAYYARRV, the “soluble on expression in E. coli” value is reported as “soluble”. For “MSLKIKHEHIRMAMNAWAHPDGEKVPAAEITRAYFELGMTFPELYDDSHPEALARNTQKIFRWVEKDTPDAVEKIQALLPAIEKSMPPLLVARMRSHSSAYFRELVETRERLVRDADDFVAVAIAGFNQMNRGGPAGNIVAVHEGHHHHHH”, the “soluble on expression in E. coli” value was “soluble”. For “AMDSIAKRPRTRLSPLKRKQQLMEIALEVFARRGIGRGGHADIAEIAQVSVATVFNYFPTREDLVDEVLNHVVRQFSNFLSDNIDLDLHAKENIANITNAMIELVVQDNHWLKVWFEWSASTRDEVWPLFVTTNRTNQLLVQNMFIKAIERGEVCDQHNPEDLANLFHGICYSLFVQANRTNNTAELSKLVSSYLDMLCIYKREHE”, the “soluble on expression in E. coli” value was “soluble”. With “GMVVNESMYQLGSVRSAIRELFEYGKKRAAIVGKENVYDFSIGNPSIPAPQIVNDTIKELVTDYDSVALHGYTSAQGDVETRAAIAEFLNNTHGTHFNADNLYMTMGAAASLSICFRALTSDAYDEFITIAPYFPEYKVFVNAAGARLVEVPADTEHFQIDFDALEERINAHTRGVIINSPNNPSGTVYSEETIKKLSDLLEKKSKEIGRPIFIIADEPYREIVYDGIKVPFVTKYYDNTLVCYSYSKSLSLPGERIGYVLVPDEVYDKAELYAAVCGAGRALGYVCAPSLFQKMIVKCQGATGDINAYKENRDLLYEGLTRIGYHCFKPDGAFYMFVKALEDDSNAFCEKAKEEDVLIVAADGFGCPGWVRISYCVDREMIKHSMPAFEKIYKKYNK” the “soluble on expression in E. coli” value was “soluble”. With “MLVNKVEICGVNTSKLPVLTNEQKKELFERMHKGDTSAREEFIKGNLRLVLSVIQRFNNRGEYVDDLFQVGCIGLIKAIDNFDVTQNVKFSTYAVPMIIGEIRRYLRDNNAIRVSRSLRDIAYKALQAKEKLTNQNSKEPTIEEIAKELGLPKEEVVFALDAIQDPISLFESVYHDGGDAIYVMDQVKDEKNNDENWLEGIALSEAMRKLNDREKLILNLRFFDGRTQMEVAEEIGISQAQVSRLEKTALMHMRKYI” the “soluble on expression in E. coli” value was “not soluble”. In the case of “MKQLWFAMSLVAASLFFSANASADPASGALLQQMNIASQSLNYELSFVSITKQGVESLRYRHARLDGRPLAQLLQLDGPRREVVQRGNEISYFEPGLEPFTLNGDYIVDSLPSLIYTDFKRLAPYYDFISVGRTRIADRLCEVIRVVARDGTRYSYIVWMDMDTKLPMRVDLLDRDGETLEQFRVIAFTVSQDIGSNMQALAKANLPPLLSVPGGEKTKFNWSPSWVPQGFSEVSSSRRPLPTMDNLPIESRLYSDGLFSFSVNVNRATQNSSDQMLRTGRRTVYSSVRDNAEITIVGELPPQTAKRIADSIKFRAVQ”, the “soluble on expression in E. coli” value is reported as “not soluble”. For “MTEFTPFFDGSNQLNYLKFVILRFHGVSKRKICKMYNFAYFRILEVCEMAKKNDYRFTYKDYKFLKQYGVSNTFICKMYHISIEDLEFFEVMNR”, the “soluble on expression in E. coli” value was “not soluble”. With “MSRLLALLALAPLLAGAAETTAPKPPSAFTVEAQRRVEAELPFADRADFERADRGLIRRPERLLIRNPDGSVAWQLGGYDFLLDGKPRDSINPSLQRQALLNLKYGLFEVAEGIYQVRGFDLANITFIRGDSGWIVVDTLTTPATARAAYELVSRELGERPIRTVIYSHAHADHFGGVRGLVEPQQVASGAVQIIAPAGFMEAAIKENVLAGNAMMRRATYQYGTQLPKGPQGQVDMAIGKGLARGPLSLLAPTRLIEGEGEDLVLDGVPFTFQNTPGTESPAEMNIWLPRQKALLMAENVVGTLHNLYTLRGAEVRDALGWSKYINQALHRFGRQAEVMFAVHNWPRWGNAEIVEVLEKQRDLYGYLHDQTLHLANQGVTIGQVHNRLRLPPSLDQEWYDRGYHGSVSHNARAVLNRYLGYYDGNPATLDPLSPEDSAGRYVEYMGGAERLLEQARASYARGEYRWVVEVVNRLVFAEPDNRAARELQADALEQLGYQAENAGWRNSYLSAAYELRHGVPRDQPTMKAGSADALAAMDTGLLFDYLGVRLDAGAAEGKALSINLRLPDIGENYLLELKNSHLNNLRGVQSEDAGQTVSIDRADLNRLLLKEVSAVRLVFEGKLKSSGNPLLLGQLFGMLGDFDFWFDIVTPAAKSEG” the “soluble on expression in E. coli” value was “soluble”. For “MNIDIKEAHRRMLYLLQSFDTVCKKHDIDYWLDYGTLLGAIRHQGFIPWDTDTDVGMLRSDYALFLEKGVPELPQDIFFQTPETEPAMAPWSWLVEARLRDRHSRYVPDKKTPAEPMQFGGLQLDLFIYDWDGKYENALSNSFERNLSESRIHLRLDEVEYLDTARFEGVEFPVPSGYDAYLTRCYGDYRTFPPEEERQIPEVVAWSVLEHHHHHH”, the “soluble on expression in E. coli” value was “soluble”.
